Results reported in ChEMBL document CHEMBL1145290, “Beta-glucuronidase-cleavable prodrugs of O6-benzylguanine and O6-benzyl-2'-deoxyguanosine” (J Med Chem, 2005).

B1: Beta-glucuronidase (Escherichia coli (strain K12)), P05804 (protein)
chain: MLRPVETPTREIKKLDGLWAFSLDRENCGIDQRWWESALQESRAIAVPGSFNDQFADADIRNYAGNVWYQREVFIPKGWAGQRIVLRFDAVTHYGKVWVNNQEVMEHQGGYTPFEADVTPYVIAGKSVRITVCVNNELNWQTIPPGMVITDENGKKKQSYFHDFFNYAGIHRSVMLYTTPNTWVDDITVVTHVAQDCNHASVDWQVVANGDVSVELRDADQQVVATGQGTSGTLQVVNPHLWQPGEGYLYELCVTAKSQTECDIYPLRVGIRSVAVKGEQFLINHKPFYFTGFGRHEDADLRGKGFDNVLMVHDHALMDWIGANSYRTSHYPYAEEMLDWADEHGIVVIDETAAVGFNLSLGIGFEAGNKPKELYSEEAVNGETQQAHLQAIKELIARDKNHPSVVMWSIANEPDTRPQGAREYFAPLAEATRKLDPTRPITCVNVMFCDAHTDTISDLFDVLCLNRYYGWYVQSGDLETAEKVLEKELLAWQEKLHQPIIITEYGVDTLAGLHSMYTDMWSEEYQCAWLDMYHRVFDRVSAVVGEQVWNFADFATSQGILRVGGNKKGIFTRDRKPKSAAFLLQKRWTGMNFGEKPQQGGKQ
B2: Beta-glucuronidase (Bos taurus), A3KMY8 (protein)
chain: MLRGSAGAWAVLGPLLWGCGLSLLQGGMLYPRESRSRERKELDGLWSFRADFSDNRRQGFEQQWYRAPLRESGPTLDMPVPSSFNDVGQDGQLRSFVGWVWYEREITLPQRWTEDLGTRVVLRIGSAHYYAIVWVNGVHVLEHEGGHLPFEADISKLVQSGPLSSCRITIAINNTLSPHTLPPGTILYKTDPSMYPKGYFVQNTKFDFFNYAGLHRSVLLYTTPTTYIDDITVTTDMDQDIGLVNYQIIVQGSDHFQVDVSLLDEEGKVMAKGAGAEGQLQVPSAHLWWPYLMHEHPAYLYSLEVKLTAQTAVGPVSDFYTLPVGIRTVAVTKSQFLINGKPFYFRGVNKHEDADIRGKGFDWPLLVKDFNLLRWLGANAFRTSHYPYSEEVLQLCDRYGIVVIDESPGVGIVLVESFSNVSLQHHLEVMEEMIRRDKNHPAVVMWSLANEPASFLKPAGYYFKTLIAHTKALDPSRPVTFVTNTNYEADLGAPYVDIICVNSYYSWYHDYGHMEVIQLQLATQFENWYKAYQKPMIQSEYGADAIEGFHEDPPLMFSEEYQKGLLQQYHVVLDQKRKEYVVGELIWNFADFMTNQSPVRMIGNRKGIFTRQRQPKSAAFLLRERYWKLANETRYQRSAVTSQCVGSGLFTV

Legend:
[1] = substrate: O=C(Nc1nc(OCc2ccccc2)c2ncn([C@H]3C[C@H](O)[C@@H](CO)O3)c2n1)OCc1ccc(O[C@@H]2O[C@H](C(=O)O)[C@@H](O)[C@H](O)[C@H]2O)c([N+](=O)[O-])c1; experiment: (§1) KM value using Escherichia coli beta-glucuronidase obtained at 370 C in MOPS buffer of pH 7.0
[2] = substrate: O=C(Nc1nc(OCc2ccccc2)c2[nH]cnc2n1)OCc1ccc(O[C@@H]2OC(C(=O)O)[C@@H](O)C(O)[C@@H]2O)c([N+](=O)[O-])c1; experiment: as §1
[3] = substrate: O=C(Nc1nc(OCc2ccccc2)c2ncn([C@H]3C[C@H](O)[C@@H](CO)O3)c2n1)OCc1ccc(O[C@@H]2O[C@H](C(=O)O)[C@@H](O)[C@H](O)[C@H]2O)c([N+](=O)[O-])c1; experiment: (§2) Vmax value using Escherichia coli beta-glucuronidase obtained at 370 C in MOPS buffer of pH 7.0
[4] = substrate: O=C(Nc1nc(OCc2ccccc2)c2[nH]cnc2n1)OCc1ccc(O[C@@H]2OC(C(=O)O)[C@@H](O)C(O)[C@@H]2O)c([N+](=O)[O-])c1; experiment: as §2
[5] = substrate: O=C(Nc1nc(OCc2ccccc2)c2ncn([C@H]3C[C@H](O)[C@@H](CO)O3)c2n1)OCc1ccc(O[C@@H]2O[C@H](C(=O)O)[C@@H](O)[C@H](O)[C@H]2O)c([N+](=O)[O-])c1; experiment: (§3) Vmax value using bovine liver beta-glucuronidase obtained at 370 C in MOPS buffer of pH 7.0; settings: Bos taurus
[6] = substrate: O=C(Nc1nc(OCc2ccccc2)c2[nH]cnc2n1)OCc1ccc(O[C@@H]2OC(C(=O)O)[C@@H](O)C(O)[C@@H]2O)c([N+](=O)[O-])c1; experiment: as §3; settings: Bos taurus
[7] = substrate: O=C(Nc1nc(OCc2ccccc2)c2ncn([C@H]3C[C@H](O)[C@@H](CO)O3)c2n1)OCc1ccc(O[C@@H]2O[C@H](C(=O)O)[C@@H](O)[C@H](O)[C@H]2O)c([N+](=O)[O-])c1; experiment: (§4) KM value using bovine liver beta-glucuronidase obtained at 370 C in MOPS buffer of pH 7.0; settings: Bos taurus
[8] = substrate: O=C(Nc1nc(OCc2ccccc2)c2[nH]cnc2n1)OCc1ccc(O[C@@H]2OC(C(=O)O)[C@@H](O)C(O)[C@@H]2O)c([N+](=O)[O-])c1; experiment: as §4; settings: Bos taurus

Protein	Km [1] [µM]	Km [2] [µM]	Vmax [3] [µmol/mg/min]	Vmax [4] [µmol/mg/min]	Vmax [5] [µmol/mg/min]	Vmax [6] [µmol/mg/min]	Km [7] [µM]	Km [8] [µM]
B1	41	17	11	7.8	–	–	–	–
B2	–	–	–	–	0.39	0.27	360	240
